Laboratory results: the supplement of paper PMC10567573

B1: RHOBTB3 (parent)
chain: VSHVFMLLFNVKSPTDIQDSSIIR
B2: KLHDC10 (parent)
chain: PSLLELAWEKLLAAFPNLANLSRT

Variants of: B1
Assay: protein stability index of a GFP-peptide fusion (GPS, HEK-293T) (PSI 1-6); higher = more stable
Conditions: c terminus: a fixed tail appended
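Further: lentivirally expressed fusions sorted by FACS into six bins by GFP to DsRed ratio, PSI derived from sequencing read proportions per bin multiplied by bin number.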

Protein stability index, by site and new letter:
S21: W 3.54 | I 2.74 | M 2.9 | Q 4.13 | F 3.07 | Y 3.45 | G 3.46
S20: W 3.16 | D 2.91 | A 2.66 | I 2.98 | H 2.49 | K 1.33 | Y 2.66 | F 2.79 | Q 3.34
S13: I 4.29 | F 3.32 | L 3.37 | H 2.37 | T 3.82 | E 2.99
S2: K 3.57 | L 3.13 | W 2.82 | G 2.58 | Y 2.75
P14: H 2.54 | W 3.15 | I 3.62 | G 4.07 | K 2.58 | D 2.34 | Y 3.96
T15: N 3.26 | L 2.3 | G 2.76 | I 2.23 | W 1.62 | R 4.51 | C 3.31 | S 5.07 | K 5.21
I23: Y 3.9 | A 4.9 | D 2.83 | E 1.89 | R 2.85 | T 2.43 | Q 2.79 | M 4.19 | W 2.86 | N 4.01
D19: L 1.89 | T 3.05 | Q 2.96 | M 4.57 | F 2.28 | S 2.93 | H 3.04 | A 3.48
V1: L 1.33 | D 2.05 | M 3.38 | K 1.05 | A 2.98 | W 3.32 | N 1.89
I17: W 3.63 | E 1.9 | P 2.88 | N 2.1 | R 3.58 | C 3.7 | Q 1.58 | V 2.81
L7: F 3.17 | N 2.25 | G 2.25 | I 2.99 | Q 2.23 | V 2.34 | A 1.74 | C 2.94 | H 3.82 | D 1.93
F5: G 1.19 | Y 3.79 | K 1.84 | C 2.99 | N 1.97 | E 2.3 | D 2.29 | Q 1.95 | P 2.04 | L 4.65 | M 1.44 | T 1.71
M6: P 1.59 | S 2.2 | R 1.77 | A 3 | L 3.66 | C 1.98 | G 2.29 | D 2.26 | V 3.62 | K 1.42 | H 2.87
D16: S 2.63 | C 2.82 | E 2.96 | N 3.77 | L 2.16
R24: Y 2.58 | E 2.74 | Q 4.67 | T 3.31 | S 3.05 | H 3.13 | F 1.82
L8: Q 2.75 | M 2.95 | G 2.55 | N 2.46 | F 2.22
V4: G 2.28 | S 1.89 | N 1.19 | F 4.42 | P 2.12 | W 2.46 | T 2.54
N10: V 2.13 | D 3.9 | W 3.77 | T 2.15 | C 1.43
H3: G 3.65 | M 1.78 | L 2.69 | Q 2.51 | D 2.38
V11: Q 1.82 | H 3.04 | L 4.23 | E 2.08
I22: T 2.35 | W 2.17 | D 2.8 | V 3.37
K12: A 5.33 | N 1.99 | G 3.36 | C 1.55 | L 1.46
F9: P 1.55 | H 1.63 | G 1.69 | T 1.57 | S 2.61 | K 2.21 | Y 4.01 | L 3.21
Q18: K 2.82 | F 2.75 | P 3.69 | A 3.32 | N 1.19 | Y 3.89 | S 3.12 | T 2.57

Variants of: B2
Assay: as above
Conditions: c terminus: a fixed tail appended

Protein stability index of substitutions, site by site:
E9: D 2.22 | L 2.29 | G 2 | A 1.84 | K 1.97 | N 2.62 | F 1.44 | I 2.07 | H 1.93 | C 1.5 | M 1.61
L4: R 3.93 | F 2.75 | E 2.1 | T 3.05 | K 3.92 | Q 3.05 | S 3.52 | G 2.58 | V 2.26 | D 2.07 | M 2.47 | C 3.05 | P 1.83 | A 3.11 | Y 2.06 | I 2.01 | N 2.83 | H 2.88 | W 2.53
E5: H 2.39 | W 1.93 | Y 2.47 | G 2.42 | P 1.34 | R 2.29 | A 2.28 | K 2.28 | S 3.15 | I 1.8 | N 2.72 | L 2.19 | T 2.31 | C 1.97 | Q 2.49 | M 2.04 | F 2.06 | V 1.71 | D 2.88
L6: R 1.72 | H 1.59 | A 1.94 | E 1.81 | T 2.23 | C 1.92 | G 1.64 | I 2.06 | P 1.86 | W 3.58 | K 3.43 | S 2.28 | M 2.47 | N 2.09 | V 2.33 | Y 1.95 | Q 2 | D 2.2 | F 2.01
L3: A 2.24 | M 1.65 | D 2.16 | I 1.56 | K 2.33 | G 1.56 | C 1.85 | Q 2.29 | F 2.22 | S 1.7 | N 1.63 | R 2.06 | W 1.9 | Y 1.86 | P 1.72 | V 1.73 | T 1.97 | H 1.75 | E 1.83
S2: M 1.61 | C 1.34 | P 2.25 | D 2.67 | H 1.78 | I 1.17 | N 1.77 | W 1.94 | V 1.86 | A 2.09 | T 1.96 | Q 1.79 | R 1.82 | Y 2.36 | L 2.19 | G 1.72 | E 2.03 | K 2.17 | F 2.41
P1: D 2.06 | S 1.85 | V 2 | Y 1.67 | W 1.8 | T 1.85 | H 2.21 | F 2.52 | I 1.92 | M 1.94 | L 2.23 | Q 2.21 | C 1.86 | N 2.17 | K 2.79 | A 2.42 | R 2.12 | E 3.28
W8: G 2.78 | P 3.21 | E 2.97 | D 2.37 | Q 2.88 | V 2.19 | C 1.85 | L 1.58 | T 1.94 | A 1.77 | N 2.37 | R 2.52 | S 2.24 | M 1.95 | H 2.54 | F 2.56 | I 1.87 | Y 2.04 | K 2.61
A7: H 1.33 | S 2.58 | N 2.28 | G 1.96 | V 2.22 | Q 2.29 | L 2.29 | K 2.73 | D 2.14 | W 1.84 | I 1.97 | Y 2.08 | P 1.77 | F 1.86 | T 1.28 | R 2.35 | C 2.23 | M 2.33 | E 2.74
